Numbering of substitutions follows the chain as printed. In names and notes the source's numbering stands.
Columns and labels:
Assay type in all cases: biochemical
[1] = Stereoselectivity analysis of CPMK reduction (chiral liquid chromatography, Table 1); conditions: product CPMA from CPMK
Procedure: (§1) In an embodiment of the present disclosure, the (R)- and (S)-CPMA is chromatographed by taking 100 μL reaction solution, adding 500 μL ethyl acetate, shaking for 1-2 min, centrifuging at 12,000 rpm for 2-5 min, placing a supernatant into a centrifuge tube, and after an organic phase is naturally volatilized completely, adding 500 μL chromatographic pure ethanol for chiral liquid chromatography of a conversion rate and an ee value. The specific chromatographic conditions are as follows: Daicel Chiralcel OB-H (5 μm, 250 mm×4.6 mm) liquid chromatography column, mobile phases are n-hexane: ethanol: ethanolamine (90:10:0.01, v/v/v), the flow rate is 1 mL/min, the column temperature is 30° C., the UV detection wavelength is 254 nm, the injection volume is 10 μL, and the retention time for (R)-CPMA and that for (S)-CPMA are 11.14 min and 12.34 min respectively.
Method for determining optical purity ee:
As: molar concentration of (S)-CPMA obtained by liquid chromatography; and AR: molar concentration of (R)-CPMA obtained by liquid chromatography.
The activity of KpADH at different substrate concentrations and coenzyme concentrations was determined, and a double reciprocal curve was made based on the reciprocal of activity and substrate concentration to calculate kinetic parameters.

[2] = Substrate specificity: reduction of prochiral carbonyl compound (Table 2)
Text: The reduction on prochiral carbonyl compounds by the alcohol dehydrogenase mutants obtained in Example 2 was studied, and the studied prochiral carbonyl compounds include (4-chlorophenyl)-(pyridin-2-yl)-methanone (CPMK), phenyl-(pyridin-2-yl)-methanone, (4-chlorophenyl)-(phenyl)-methanone, (4-bromophenyl)-(phenyl)-methanone, (4-fluorophenyl)-(pyridin-2-yl)-methanone, (4-methoxyphenyl)-(phenyl)-methanone, acetophenone, 4-chloroacetophenone and 2-(4-chlorophenyl)acetyl chloride.

[3] = 20 mL biocatalytic system: asymmetric reduction of CPMK
Procedure: as §1
A 20 mL biocatalytic system was established: 100 mM potassium phosphate buffer (pH 7.0), and the alcohol dehydrogenase mutants M6 and M7 obtained in Example 2 as well as wild KpADH 10 g/L, CPMK 100 mM, 200 mM and 500 mM were added (substrate added in batches). […]

B1: M2: alcohol dehydrogenase mutant: valine for glutamic acid at position 214 (E214V) of SEQ ID No. 2 (protein)
chain: MSVLISGASGYIAKHIVRVLLEQNYKVIGTVRSQDKADKLLKQYNNPNLSYEIVPEIANLDAFDDIFKKHGKEIKYVIHAASPVNFGAKDLEKDLVIPAINGTKNMFEAIKKYAPDTVERVVMTASYASIMTPHRQNDPTLTLDEETWNPVTEENAYENVFTAYCASKTFAEKEAWKFVKENSDAVKFKLTTIHPSFVFGPQNFDEDVTKKLNVTCEIINGLLHAPFDTKVEKTHFSQFIDVRDVAKTHVLGFQKDELINQRLLLCNGAFSQQDIVNVFNEDFPELKGQFPPEDKDTDLNKGVTGCKIDNEKTKKLLAFEFTPFHKTIHDTVYQILHKEGRV
modifications: Protein translated from synthetic DNA
With B1 the ee [1] was 92.3%, the “ee value of product” value ([2]; substrate drawing 1 (CPMK)) was 92.3% and the “ee value of product” value ([2]; substrate drawing 2) was 30.6%. The “ee value of product” value ([2]; substrate drawing 3) was 87.9%, the “ee value of product” value ([2]; substrate drawing 4) was 95.5% and the “ee value of product” value ([2]; substrate drawing 5) was 0.56%. The “ee value of product” value ([2]; substrate drawing 6) was 23.2%, the “ee value of product” value ([2]; substrate drawing 7) was 45.3% and the “ee value of product” value ([2]; substrate drawing 8) was 94.9%. For the same molecule, the “ee value of product” value ([2]; substrate drawing 9) was 91.2%.

B2: M3: alcohol dehydrogenase mutant E214G, S237C of SEQ ID No. 2 (protein)
chain: B1 chain with V214G, S237C
modifications: Protein translated from synthetic DNA
For B2, the ee [1] was 51.8%, the “ee value of product” value ([2]; substrate drawing 1 (CPMK)) was 65.4% and the “ee value of product” value ([2]; substrate drawing 2) was 36.5%. The “ee value of product” value ([2]; substrate drawing 3) was 33.2%, the “ee value of product” value ([2]; substrate drawing 4) was 63.3% and the “ee value of product” value ([2]; substrate drawing 5) was 45.6%. The “ee value of product” value ([2]; substrate drawing 6) was 80.6%, the “ee value of product” value ([2]; substrate drawing 7) was 95.3% and the “ee value of product” value ([2]; substrate drawing 8) was 88.9%. For the same molecule, the “ee value of product” value ([2]; substrate drawing 9) was 99.8%.

B3: M1: alcohol dehydrogenase mutant: glycine for glutamic acid at position 214 (E214G) of SEQ ID No. 2 (protein)
chain: B1 chain with V214G
modifications: Protein translated from synthetic DNA
For B3, the ee [1] was 3.29%, the “ee value of product” value ([2]; substrate drawing 1 (CPMK)) was 24.2% and the “ee value of product” value ([2]; substrate drawing 2) was 41.0%. The “ee value of product” value ([2]; substrate drawing 3) was 63.2%, the “ee value of product” value ([2]; substrate drawing 4) was 49.3% and the “ee value of product” value ([2]; substrate drawing 5) was 7.51%. For the same molecule, the “ee value of product” value ([2]; substrate drawing 6) was 42.7%, the “ee value of product” value ([2]; substrate drawing 7) was 68.5% and the “ee value of product” value ([2]; substrate drawing 8) was 86.3%. The “ee value of product” value ([2]; substrate drawing 9) was 94.5%.

B4: M4: alcohol dehydrogenase mutant E214G, S237C, Q136N of SEQ ID No. 2 (protein)
chain: B1 chain with Q136N, V214G, S237C
modifications: Protein translated from synthetic DNA
In the case of B4, the ee [1] is reported as 88.0%, the “ee value of product” value ([2]; substrate drawing 1 (CPMK)) is reported as 80.6% and the “ee value of product” value ([2]; substrate drawing 2) is reported as 20.7%. For the same molecule, the “ee value of product” value ([2]; substrate drawing 3) was 38.6%, the “ee value of product” value ([2]; substrate drawing 4) was 66.5% and the “ee value of product” value ([2]; substrate drawing 5) was 49.1%. For the same molecule, the “ee value of product” value ([2]; substrate drawing 6) was 82.6%, the “ee value of product” value ([2]; substrate drawing 7) was 91.5% and the “ee value of product” value ([2]; substrate drawing 8) was 57.7%. The “ee value of product” value ([2]; substrate drawing 9) was 99.3%.

B5: M7: alcohol dehydrogenase mutant E214V, T215S of SEQ ID No. 2 (protein)
chain: B1 chain with T215S
modifications: Protein translated from synthetic DNA
With B5 the “ee value of final reduction product” value ([3]; 20 mL biocatalytic system, enzyme 10 g/L, 30° C., pH 7.5) was 99.7%, the Conversion rate ([3]; CPMK 100 mM, reaction time 1 h) was 34.0% and the Conversion rate ([3]; CPMK 100 mM, reaction time 2 h) was 40.8%. For the same molecule, the Conversion rate ([3]; CPMK 100 mM, reaction time 3 h) was 41.5%, the Conversion rate ([3]; CPMK 100 mM, reaction time 4 h) was 46.5% and the Conversion rate ([3]; CPMK 100 mM, reaction time 6 h) was 58.7%. It also gave a Conversion rate ([3]; CPMK 100 mM, reaction time 8 h) of 69.0%, a Conversion rate ([3]; CPMK 100 mM, reaction time 12 h) of 99.7% and a Conversion rate ([3]; CPMK 100 mM, reaction time 24 h) of 99.7%. The Conversion rate ([3]; CPMK 200 mM, reaction time 1 h) was 20.9%, the Conversion rate ([3]; CPMK 200 mM, reaction time 2 h) was 33.1% and the Conversion rate ([3]; CPMK 200 mM, reaction time 3 h) was 48.1%. It also gave a Conversion rate ([3]; CPMK 200 mM, reaction time 4 h) of 55.2%, a Conversion rate ([3]; CPMK 200 mM, reaction time 6 h) of 77.4% and a Conversion rate ([3]; CPMK 200 mM, reaction time 8 h) of 86.3%. It also gave a Conversion rate ([3]; CPMK 200 mM, reaction time 12 h) of 92.2%, a Conversion rate ([3]; CPMK 200 mM, reaction time 24 h) of 99.7% and a Conversion rate ([3]; CPMK 500 mM, reaction time 1 h) of 10.8%. For the same molecule, the Conversion rate ([3]; CPMK 500 mM, reaction time 2 h) was 21.1%, the Conversion rate ([3]; CPMK 500 mM, reaction time 3 h) was 38.7% and the Conversion rate ([3]; CPMK 500 mM, reaction time 4 h) was 43.2%. It also gave a Conversion rate ([3]; CPMK 500 mM, reaction time 6 h) of 62.1%, a Conversion rate ([3]; CPMK 500 mM, reaction time 8 h) of 70.7% and a Conversion rate ([3]; CPMK 500 mM, reaction time 12 h) of 89.9%. For the same molecule, the Conversion rate ([3]; CPMK 500 mM, reaction time 24 h) was 99.4%, the “time required to achieve a conversion rate close to 99.9%” value ([3]; CPMK concentration 200 mM) was 24 h and the “ee value of product” value ([2]; substrate drawing 2) was 11.9%. For the same molecule, the “ee value of product” value ([2]; substrate drawing 3) was 99.4%, the “ee value of product” value ([2]; substrate drawing 5) was 9.22% and the “ee value of product” value ([2]; substrate drawing 6) was 45.7%. For the same molecule, the “ee value of product” value ([2]; substrate drawing 7) was 51.3%, the “ee value of product” value ([2]; substrate drawing 8) was 95.1% and the “ee value of product” value ([2]; substrate drawing 9) was 77.5%.

B6: M5: alcohol dehydrogenase mutant E214G, S237C, Q136N, S196G of SEQ ID No. 2 (protein)
chain: B1 chain with Q136N, S196G, V214G, S237C
modifications: Protein translated from synthetic DNA
For B6, the ee [1] was 93.5%, the “ee value of product” value ([2]; substrate drawing 1 (CPMK)) was 87.7% and the “ee value of product” value ([2]; substrate drawing 2) was 15.5%. For the same molecule, the “ee value of product” value ([2]; substrate drawing 3) was 62.0%, the “ee value of product” value ([2]; substrate drawing 4) was 70.9% and the “ee value of product” value ([2]; substrate drawing 5) was 59.5%. For the same molecule, the “ee value of product” value ([2]; substrate drawing 6) was 81.7%, the “ee value of product” value ([2]; substrate drawing 7) was 95.6% and the “ee value of product” value ([2]; substrate drawing 8) was 49.1%. The “ee value of product” value ([2]; substrate drawing 9) was 99.9%.
